From patent publication US20240382604A1 (GUANGZHOU MEDICAL UNIVERSITY, published 2024) come the findings set out here.

No end group written: not given here.

In this assay the target is papain-like protease (PLpro), enzyme used in the in vitro enzyme assay (SARS-CoV-2, UniProt P0DTD1 1564-1878, limits assumed). Kind of assay: cell-based or functional assay.

For SRLRGG-GRL0617 [peptide-drug conjugate RG-17 (polypeptide SRLRGG linked with GRL0617)], the “IC50, inhibition of PLpro activity in the in vitro enzyme assay (hydrolysis of substrate RLRGG-AMC, AMC fluorescence)” value is 1400 nM.
